Reference: paper PMC7959842, “Deregulation of Factor H by Factor H-Related Protein 1 Depends on Sialylation of Host Surfaces” (Frontiers in Immunology, 2021)
pKd: −log10 of the molar value.

Tests used:
C3b [1] = target: C3b (UniProt P01024); assay: SPR; AP C3 convertase formation: ~6,000 RU C3b amine-coupled on a CMD500M chip; FB (600 nM) + FD (100 nM) injected alone or mixed with analyte (9.6 uM); signal of the analyte alone subtracted; 25 C, PBS 0.005% Tween20, 1 mM MgCl2
C3b [2] = target: C3b (UniProt P01024); assay: SPR; C3b immobilised in two ways: biotin coupling (~1,500 RU on a streptavidin SAP chip) and amine coupling (~7,250 RU on a CMD500M chip); analytes flowed (FH18-20 constructs 0.16-40 or 0.63-40 uM, FHR-1 constructs 0.04-10 uM); 25 C, PBS 0.005% Tween20, 25 ul/min; 1:1 steady-state affinity fit; the printed ranges span both ways of immobilisation

| Substance | decrease of the AP C3 convertase signal (FB + FD on C3b) with the analyte co-injected at 9.6 uM (C3b [1]) | pKd (C3b [2]) |
| --- | --- | --- |
| FHR-1 (factor H-related protein 1, FHR-1*B, wild-type) (from UniProt Q03591 19-330) (natural protein) | 50% | – |
| FHR-1(SV) (from UniProt Q03591 19-330) (natural protein) | 50% | 5.82 to 5.85 |
